Where a SMILES comes first, the peptide text is derived from it. Bridges are numbered along the chain shown (N, C = ends). Where no end group is shown, it is not given here. [ ]: non-standard residue; d: D form. NMeR = CN[C@@H](CCCNC(=N)N)C(=O)O; Pen = CC(C)(S)[C@H](N)C(=O)O
Assays:
FIG. 3 = assay: FIG. 3
Text: Table printed on a drawing sheet, FIG. 3
First reader's note: The sequence is split into one residue per column (positions 4-11 plus one unnumbered column), and SEQ ID 39 is printed twice.

[1] = Simulated Intestinal Fluid (SIF) Stability Assay; assay type: in vitro ADME; details: for stability in simulated intestinal fluids (SIF): substitution of Cys with Pen, compared to SEQ ID NO: 46 with Cys
Experimental: Simulated Intestinal Fluid (SIF) Stability Assay
Studies were carried out in simulated intestinal fluid (SIF) to evaluate gastric stability of the dimer molecules of the instant invention. SIF was prepared by adding 6.8 g of monobasic potassium phosphate and 10.0 g of pancreatin to 1.0 L of water. After dissolution, the pH was adjusted to 6.8 using NaOH. DMSO stocks (2 mM) were first prepared for the test compounds. Aliquots of the DMSO solutions were dosed into 6 individual tubes, each containing 0.5 mL of SIF, which had been pre-warmed to 37° C.
The final test compound concentration was 20 μM. The vials were kept in a benchtop Thermomixer® for the duration of the experiment. At each timepoint (0, 5, 10, 20, 40, and 60 minutes), 1.0 mL of acetonitrile containing 1% formic acid was added to one vial to terminate the reaction. Samples were stored at 4° C. until the end of the experiment. After the final timepoint was sampled, the tubes were mixed and then centrifuged at 3,000 rpm for 10 minutes. Aliquots of the supernatant were removed, diluted 1:1 into distilled water containing internal standard, and analyzed by LCMS/MS. Percent remaining at each timepoint was calculated based on the peak area response ratio of test to compound to internal standard. Time 0 was set to 100%, and all later timepoints were calculated relative to time 0. Half-lives were calculated by fitting to a first-order exponential decay equation using Graphpad. A small sampling of the results of these studies is provided and discussed in connection FIG. 3, above.

Molecule	SIF Stability (Half-Life, Min) (FIG. 3)	stability in simulated intestinal fluids (SIF) [1]	further results
CC(=O)N[C@H]1CSSC[C@@H](C(N)=O)NC(=O)[C@H](CC(C)C)NC(=O)[C@H]([C@@H](C)O)NC(=O)[C@H](CC(=O)O)NC(=O)[C@H](CO)NC(=O)[C@H](CCCNC(=N)N)NC1=O [compound 39, Ac-C R S D T L C-NH2] (Ac-CRSDTLC-NH2; disulfide 1-7)	<1 min		
SEQ ID NO: 46: integrin antagonist homodimer of monomer subunit SEQ ID NO: 46 (Cys, N-terminally dimerized); N(alpha)Methylated and non-methylated variations (CRSDTLC; disulfide 1-7; not fully specified (residue 2); also: homodimer linked at N-termini) [listing 1 of 2 here]	73 min		
SEQ ID NO: 46: integrin antagonist homodimer of monomer subunit SEQ ID NO: 46 (Cys, N-terminally dimerized); N(alpha)Methylated and non-methylated variations (CRSDTLC; disulfide 1-7; not fully specified (residue 2); also: homodimer linked at N-termini) [listing 2 of 2 here]			half-life in SIF ([1]; substitution of arginine with N-Me-Arg, N(alpha)Methylated vs non-methylated variation): increased half-life substantially
SEQ ID NO: 55: integrin antagonist homodimer of monomer subunit SEQ ID NO: 55, Cys substituted with Penicillamine (Pen) (C[NMeR]SDTL[Pen][dK]; disulfide 1-7; also: homodimer, link not given here)		increased stability significantly	
SEQ ID NO: 74: integrin antagonist homodimer of monomer subunit SEQ ID NO: 74, Cys substituted with Penicillamine (Pen) (C[NMeR]SDTL[Pen]E[dK]; disulfide 1-7; also: homodimer, link not given here)		increased stability significantly	

Source: patent publication US20190002500A1, “NOVEL a4B7 PEPTIDE DIMER ANTAGONISTS” (Protagonist Therapeutics, Inc., priority 2013, published 2019)
